This note sets out measurements from article PMC8528238 (Nature, 2021).

The target of the test is batCoV-SHC014 S-2P (Bat SARS-like coronavirus RsSHC014, UniProt U5WLK5, stabilised). Briefly: ELISA. (ELISA stands for enzyme-linked immunosorbent assay.)

B1: DH1047, cross-neutralizing RBD antibody (antibody, V domains shown)
VH: QVQLVQSGAEVKKPGASVQVSCQASANTFTNHYIHWVRQAPGQGLEWMGIIYPTGGNTIYAQGFQGRVTMTRDTSLNTIYLELSSLRSEDTAVYYCARDVRVDDSWSGYDLLSGGTYFDYWGQGTLVTVSS
VL: not shown
In the case of B1, the binding result is “binds”.
